Source: patent US20220064322A1
Substitutions are numbered along the chain they refer to.

B1: JB94H2L1 (antibody, human IgG1, kappa, V domains shown)
VH: QVQLVQSGAEVKKPGASVKVSCKASGYTFTSYWMHWVRQRPGQGLEWMGYINPSSGYTKSNQKFKDRVTLTADTSTSTAYMELSSLRSEDTAVYYCGRWLLSAWFAYWGQGTLVTVSS
VL: DIQMTQSPSSLSASVGDRVTITCKASQDINTYLSWFQQKPGKAPKSLIYRSNILVDGVPSRFSGSGSGQDFTLTISSLQPEDFAIYYCLQYDDFPYTFGQGTKLEIKR
B2: JB94H3L3 (antibody, human IgG1, kappa, V domains shown)
VH: B1 VH with V5Q, V20L, M48I, V68A
VL: B1 VL with A43S, F71Y
B3: JB24H2L1 (antibody, human IgG1, kappa, V domains shown)
VH: QVQLVQSGAEVKKPGASVKMSCKASGYTFTDYNMHWVRQSPGKSLEWIGYIKPHNAGTTYNPKFEGRATLTVDTSASTAYMELSSLRSEDTAVYYCVRSDFLYWYFDVWGQGTTVTVSS
VL: DIQMTQSPSSLSASVGDRVTITCTASSSVSSSYLHWYQQKPGKAPKLLIYSTSNLASGVPSRFSGSGSGTDFTLTISSLQPEDFATYYCHQYHRSPLTFGAGTKLEIKR
B4: JB24H3L3 (antibody, human IgG1, kappa, V domains shown)
VH: B3 VH with R38K, P41H, S84R
VL: B3 VL with Q3V, K43S, A44S, L48W, S61G, F72Y
B5: JB24H3L2 (antibody, human IgG1, kappa, V domains shown)
VH: B3 VH with R38K, P41H, S84R
VL: B3 VL with K43S, L48W, F72Y
B6: 191C3A8B9 (antibody, mouse IgG1, kappa, V domains shown)
VH: QVQLKESGPGLVAPSQSLSITCTVSGFSLTNYGVHWVRQPPGKGLEWLGVIWAGGSTNYNSALMSRLSISKDNSKSQLFLKMNSLQADDTAMYYCARERGSSWGTMDYWGQGTSVTVSS
VL: QIVLTQSPAIMSASPGEKVTMTCSASSRVSYMHWYQQKSGTSPKRWIYDTSQLASGVPARFSGSGSGTSYSLTISSMEAEDAATYYCQQWSSNPYTFGGGTKLEMRR
B7: JB24Chi (antibody, human IgG1, kappa, V domains shown)
VH: QVQLQQSGLELVKPGASVKMSCKASGYTFTDYNMHWVKQSHGKSLEWIGYIKPHNGGTTYNPKFEGKATLTVNKSSSTAYMELRSLTSEDSAVYYCVRCDFLYWYFDVWGTGTTVTVSS
VL: DIVMTQSPAIMSASLGERVTMTCTASSSVSSSYLHWYQQKPGSSPKLWIYSTSNLASGVPGRFSGSGSGTSYSLTISSMEAEDAATYYCHQYHRSPLTFGAGTKLEMKR
B8: 66-hIgG2 (antibody)
heavy: QVHLQQSGAELAKPGASVNLSCKASGYAFTSYWMHWVKQRPGQGLEWIGYINPSSGLAKYNQKFKDKATLTTDKSSNTAYMQLSSLTYDDSAVYYCGRWLLSAWFAYWGQGTLVTVSAASTKGPSVFPLAPCSRSTSESTAALGCLVKDYFPEPVTVSWNSGALTSGVHTFPAVLQSSGLYSLSSVVTVPSSNFGTQTYTCNVDHKPSNTKVDKTVERKCCVECPPCPAPPVAGPSVFLFPPKPKDTLMISRTPEVTCVVVDVSHEDPEVQFNWYVDGVEVHNAKTKPREEQFNSTFRVVSVLTVVHQDWLNGKEYKCKVSNKGLPAPIEKTISKTKGQPREPQVYTLPPSREEMTKNQVSLTCLVKGFYPSDIAVEWESNGQPENNYKTTPPMLDSDGSFFLYSKLTVDKSRWQQGNVFSCSVMHEALHNHYTQKSLSLSPGK
light: DIKMTQSPSSIYASLGERVTITCKASQGINTYLSWFQQKPGKSPKTLIYRANILVDGVPSRFSGSGSGQDYSLTINSLEYEDMGIYYCLQYDEFPYTFGGGTKLEIKRTVAAPSVFIFPPSDEQLKSGTASVVCLLNNFYPREAKVQWKVDNALQSGNSQESVTEQDSKDSTYSLSSTLTLSKADYEKHKVYACEVTHQGLSSPVTKSFNRGEC
B9: 94-hIgG2 (antibody)
heavy: B8 heavy with H3Q, N19K, A28T, L57Y, A58T, Y60S, T72A, N77S, D89E
light: B8 light with K3R, I11M, G28D, T46S, A51S, N76S, E93D
B10: 94H1L3 hIgG2 (antibody)
heavy: QVQLVQSGAEVKKPGASVKVSCKASGYTFTSYWMHWVRQAPGQGLEWMGYINPSSGYTKSNQKFKDRVTMTADTSTSTAYMELSSLRSEDTAVYYCGRWLLSAWFAYWGQGTLVTVSSASTKGPSVFPLAPCSRSTSESTAALGCLVKDYFPEPVTVSWNSGALTSGVHTFPAVLQSSGLYSLSSVVTVPSSNFGTQTYTCNVDHKPSNTKVDKTVERKCCVECPPCPAPPVAGPSVFLFPPKPKDTLMISRTPEVTCVVVDVSHEDPEVQFNWYVDGVEVHNAKTKPREEQFNSTFRVVSVLTVVHQDWLNGKEYKCKVSNKGLPAPIEKTISKTKGQPREPQVYTLPPSREEMTKNQVSLTCLVKGFYPSDIAVEWESNGQPENNYKTTPPMLDSDGSFFLYSKLTVDKSRWQQGNVFSCSVMHEALHNHYTQKSLSLSPGK
light: DIQMTQSPSSLSASVGDRVTITCKASQDINTYLSWFQQKPGKSPKSLIYRSNILVDGVPSRFSGSGSGQDYTLTISSLQPEDFAIYYCLQYDDFPYTFGQGTKLEIKRTVAAPSVFIFPPSDEQLKSGTASVVCLLNNFYPREAKVQWKVDNALQSGNSQESVTEQDSKDSTYSLSSTLTLSKADYEKHKVYACEVTHQGLSSPVTKSFNRGEC

molecular target: human CD73 on the cell surface (293T/17-huCD73 cells) (human) (UniProt P21589); test: cell-based or functional assay
Sequence (P21589 27-549): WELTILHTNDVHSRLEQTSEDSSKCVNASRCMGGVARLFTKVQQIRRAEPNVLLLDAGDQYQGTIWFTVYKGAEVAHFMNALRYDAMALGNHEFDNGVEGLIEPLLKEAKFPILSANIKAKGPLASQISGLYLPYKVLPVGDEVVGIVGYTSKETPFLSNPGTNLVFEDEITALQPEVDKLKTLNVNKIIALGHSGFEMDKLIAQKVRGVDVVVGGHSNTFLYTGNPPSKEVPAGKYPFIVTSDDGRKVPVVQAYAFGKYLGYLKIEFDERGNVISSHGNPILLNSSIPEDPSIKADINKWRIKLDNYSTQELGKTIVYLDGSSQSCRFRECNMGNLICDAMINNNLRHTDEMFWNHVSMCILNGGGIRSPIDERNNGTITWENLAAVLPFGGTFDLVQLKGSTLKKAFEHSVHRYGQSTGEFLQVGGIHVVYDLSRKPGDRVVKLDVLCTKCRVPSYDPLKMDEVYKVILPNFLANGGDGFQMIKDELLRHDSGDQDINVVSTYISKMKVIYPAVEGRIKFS

IC50, blockade of 5'exonuclease activity of U87-MG cells [nM] | IC50, blockade of 5'exonuclease activity on 293T/17-human CD73 cells [nM] | IC50, blockade of 5'exonuclease activity on 293T/17-HuCD73 cells [nM] | EC50, release of IFN-γ from CD4+ T cells (ELISA of supernatant) [nM] | EC50, reversal of AMP-mediated human CD4+ T cell proliferation inhibition [nM] | IC50, antibody-mediated internalization of CD73 on MDA-MB-231 cells (Fab-ZAP saporin conjugate) [nM] | IC50, blockade of CD73 enzyme activity of CD4+ T cells (CellTiter-Glo) [nM] | Binder
0.214 | 0.005 |  |  |  |  |  | B1
0.456 | 0.004 |  |  |  |  |  | B2
0.474 | 0.042 |  |  |  |  |  | B3
0.12 | 0.016 |  |  |  |  |  | B4
0.27 | 0.014 |  |  |  |  |  | B5
 |  | 0.009 |  |  |  |  | B6
0.053 | 0.006 | 0.031 | 0.0132 | 0.007 | 0.012 | 0.009 | B7

molecular target: human CD73 on the cell surface (293T/17-huCD73 cells) (human) (UniProt P21589); test: cell-based or functional assay; remark: another data set of the same source

EC50, reversal of AMP-mediated human CD4+ T cell proliferation inhibition [nM] | Binder
0.032 | B1
0.003 | B2
0.032 | B3
0.068 | B4
0.022 | B5
0.003 | B7

molecular target: human CD73 on the cell surface (293T/17-huCD73 cells) (human) (UniProt P21589); test: cell-based or functional assay; remark: another data set of the same source

EC50, release of IFN-γ from CD4+ T cells (ELISA of supernatant) [nM] | Binder
0.002 | B1
0.003 | B2
0.002 | B3
0.345 | B4
0.015 | B5
0.006 | B7

molecular target: human CD73 on the cell surface (293T/17-huCD73 cells) (human) (UniProt P21589); test: flow cytometry on 293T/17-huCD73 cells

EC50 [nM] | Binder
0.828 | B6
1.14 | B7

molecular target: T1, human CD73 on the cell surface (293T/17-huCD73 cells) (human), P21589; test: cell-based or functional assay
T1 sequence (P21589 27-549): as above

IC50, antibody-mediated internalization of CD73 on MDA-MB-231 cells (Fab-ZAP saporin conjugate) [nM] | IC50, blockade of 5'exonuclease activity on 293T/17-human CD73 cells [nM] | Binder
0.022 |  | B8
0.019 |  | B9
 | 0.007 | B10

molecular target: T1, human CD73 on the cell surface …; test: cell-based or functional assay; remark: another data set of the same source

EC50, reversal of AMP-mediated human CD4+ T cell proliferation inhibition [nM] | Binder
0.012 | B10

molecular target: T1, human CD73 on the cell surface …; test: cell-based or functional assay; remark: another data set of the same source

EC50, release of IFN-γ from CD4+ T cells (ELISA of supernatant) [nM] | Binder
0.001 | B10

molecular target: human CD73 on the cell surface (293T/17-huCD73 cells) (human) (UniProt P21589); test: flow cytometry on 293T/17-human CD73 cells

EC50 [nM] | Binder
9.15 | B1
15.3 | B2
2.4 | B3
7.41 | B4
3.01 | B5
5.33 | B7

molecular target: human CD73 on the cell surface (293T/17-huCD73 cells) (human) (UniProt P21589); test: flow cytometry on 293T/17-huCD73 cells, curve fit

Bottom (fluorescence intensity) | Top (fluorescence intensity) | Binder
2.67 | 105 | B6
-1.47 | 42 | B7

molecular target: human CD73 on the cell surface (293T/17-huCD73 cells) (human) (UniProt P21589); test: flow cytometry on 293T/17-human CD73 cells, curve fit

Bottom [fluorescence] | Top [fluorescence] | Binder
0.604 | 223 | B1
1.78 | 239 | B2
1.64 | 82.2 | B3
0.131 | 120 | B4
1.78 | 91.7 | B5
3.72 | 196 | B7

molecular target: human CD73 on the cell surface (293T/17-huCD73 cells) (human) (UniProt P21589); test: flow cytometry on 293T/17-huCD73 cells, fluorescently labelled detection antibody, MFI

EC50 (read off the curve) [nM] | Binder
1 | B6

molecular target: human CD73 on the cell surface (293T/17-huCD73 cells) (human) (UniProt P21589); test: flow cytometry on 293T/17 cells expressing huCD73, APC-labelled goat anti-human antibody, MFI

EC50 (read off the curve) [nM] | Binder
2 | B3
3 | B5
6 | B7
